The test system of the series is PKGIα Cys42 interchain disulfide bond. Kind of series: Dihydrolipoic acid/lipoic acid redox titration of recombinant PKGIα, disulfide dimerization by SDS-PAGE. The series is classed as physicochemical. The note with it: in vitro, unpublished data. From the text: PhD thesis (2015) by Daniel Stubbert from this lab. We have amended the manuscript so that it now states that the PKGIα Cys42 disulfide bond is reversible and referenced the literature detailing the auranofin experiments described above:
“Reactive oxygen species (ROS) promote formation of a reversible intermolecular disulfide bond between the two subunits of the PKGIα homodimer at Cys424,5.”
Furthermore, in relation to reversibility, we also have unpublished data relating to the thermodynamic stability of the Cys42 interchain disulfide bond in vitro. We have performed a dihydrolipoic acid/lipoic acid redox titration with recombinant PKGIα and analysed the amount of disulfide dimerization by SDS-PAGE. The equilibrium redox potential was determined as approximately −280 mV; a value within the conﬁnes of the cellular redox potenƟal which ranges from ~−350 to –150 mV depending on e.g. the organelle an d stage of the cell cycle (Jones, D. P.
Journal of Internal Medicine 268, 432-448 (2010); Jones, D. P. American Journal of Physiology - Cell […]
consistent with our findings from tissue and cells, and arguably ex actly what would be expected of a protein that is required to rapidly transduce an oxidant signal into a biological response.
--What are the consequences of cys42 oxidation for cGMP activation of PKG? […]

B1: PKGIα: recombinant PKGIα; Cys42 interchain disulfide bond (protein)
chain: MSELEEDFAKILMLKEERIKELEKRLSEKEEEIQELKRKLHKCQSVLPVPSTHIGPRTTRAQGISAEPQTYRSFHDLRQAFRKFTKSERSKDLIKEAILDNDFMKNLELSQIQEIVDCMYPVEYGKDSCIIKEGDVGSLVYVMEDGKVEVTKEGVKLCTMGPGKVFGELAILYNCTRTATVKTLVNVKLWAIDRQCFQTIMMRTGLIKHTEYMEFLKSVPTFQSLPEEILSKLADVLEETHYENGEYIIRQGARGDTFFIISKGTVNVTREDSPSEDPVFLRTLGKGDWFGEKALQGEDVRTANVIAAEAVTCLVIDRDSFKHLIGGLDDVSNKAYEDAEAKAKYEAEAAFFANLKLSDFNIIDTLGVGGFGRVELVQLKSEESKTFAMKILKKRHIVDTRQQEHIRSEKQIMQGAHSDFIVRLYRTFKDSKYLYMLMEACLGGELWTILRDRGSFEDSTTRFYTACVVEAFAYLHSKGIIYRDLKPENLILDHRGYAKLVDFGFAKKIGFGKKTWTFCGTPEYVAPEIILNKGHDISADYWSLGILMYELLTGSPPFSGPDPMKTYNIILRGIDMIEFPKKIAKNAANLIKKLCRDNPSERLGNLKNGVKDIQKHKWFEGFNWEGLRKGTLTPPIIPSVASPTDTSNFDSFPEDNDEPPPDDNSGWDIDF
modifications: intermolecular disulfide bond at Cys42 between the two subunits
Regarding B1, the “equilibrium redox potential of the Cys42 interchain disulfide bond” value is recorded as “approximately −280 mV”.
